This note sets out measurements from patent publication US20150118213A1 (OMRIX BIOPHARMACEUTICALS, published 2015).

T1: Fluorescein-labeled cyclic gamma-loop derived peptide (disulfide 1-12; also: fluorescein label, site not given here)
T1 construct: also called fluorescent gamma loop peptide
T1 peptide: CKETWTANVGKC

B1: Rnd_inter_316 (peptide)
peptide: LGNKKFVSGSRFVST
notes: 15-mer from the random peptide array; also called Rnd316; Rnd 316
B2: Thr_069 (peptide)
peptide: WCYVAGKPGDFGYCD
notes: 15-mer from the thrombin derived peptide array; also called thrombin derived peptide Thr-069
B3: Rnd_inter_155 (peptide)
peptide: SHNQRFVTYLGSKLG
notes: 15-mer from the random peptide array; also called Rnd155; Random2
B4: Thr_136_CS (peptide)
peptide: RIRITDNMFSAGYKP
notes: Thrombin derived 15-mer in which Cysteine residues have been replaced by Serine
B5: Thr_032_CS (peptide)
peptide: SGIESQLWRSRYPHK
notes: as for B4
B6: Thr_111 (peptide)
peptide: ISMLEKIYIHPRYNW
notes: 15-mer from the thrombin derived peptide array
B7: Thr_031_CS (peptide)
peptide: NITRSGIESQLWRSR
notes: as for B4

Bridges are numbered along the chain shown (N, C = ends). Where no end group is shown, it is not given here.

The target in one assay is thrombin (aqueous liquid purified and concentrated thrombin) (UniProt P00734 44-622; P00734 44-622). The assay is described as follows: cell-based or functional assay.
As for KETWTANVGK [linear gamma peptide (SEQ ID NO:1)], the “inhibition of thrombin clotting activity at 0.5 mM peptide” value was roughly 20%.
As for CKETWTANVGKC (disulfide 1-12) [cyclic gamma peptide], the “inhibition of thrombin clotting activity at 0.5 mM peptide” value was roughly 7%.

In a further assay the target is T1, Fluorescein-labeled cyclic gamma-loop …. The assay is described as follows: peptide microarray, immobilised 15-mer probed with fluorescein-labelled cyclic gamma-loop peptide; fluorescence scale 0-65535. The source says:
Peptides were synthesized using SPOT synthesis (Wenschuh H, et al. (2000). Coherent membrane supports for parallel microsynthesis and screening of bioactive peptides. Biopolymers 55:188-206) and were chemoselectively immobilized onto functionalized glass slides as described (Panse S, et al. (2004) Profiling of generic anti-phosphopeptide antibodies and kinases with peptide microarrays using radioactive and fluorescence-based assays. Mol Divers 8:291-299.2.). Each peptide was printed in triplicates onto the microarray. For binding studies, 100 ng of purified thrombin (Omrix biopharmaceuticals) were directly labeled with DyLight 650 (DyLight® Microscale Antibody Labeling Kits, Thermo Scientific, #84536) and diluted in blocking buffer (SuperBlockT20 (TBS) Blocking Buffer, Thermo Scientific, #37536). The microarrays were incubated with 10 μg/ml DyLight 650-Thrombin or a Fluorescein-labeled cyclic gamma-loop derived peptide for one hour at 30° C. in a HS4800 microarray processing station (Tecan) (Masch A, et al., (2010) Antibody signatures defined by high-content peptide microarray analysis. Methods Mol Biol 669:161-172).
Microarrays were washed with 0.1% Tween-20 in 1×TBS followed by 0.05% Tween-20 in 0.1×SSC and dried in a stream of nitrogen. Each microarray was scanned using GenePix Autoloader 4200AL (Molecular Devices, Pixel size: 10 μm). Signal intensities were evaluated using spot recognition software Genepix Pro 7.0 analysis software (Molecular Devices). For each peptide, the mean signal intensity of the three triplicates was extracted. Further evaluation and representation of results was performed using the statistical computing and graphics software R (Version 2.11.1, www.r-project.org).
One array included peptides based on the thrombin sequence. Any peptide isolated from this library may reflect possible regions in the thrombin protein that may interact with the gamma loop. […] The fluorescence for the strongest binding candidates (hits) was quantified on an arbitrary scale of 0-65535 (2¹⁶). Thrombin activity was assessed as described in Example 1.
Consider B1, for which the “Binding intensity of gamma loop” value was 26600 arbitrary units.
As for B2, the “Binding intensity of gamma loop” value worked out at 50600 arbitrary units.
On to B3, for which the “Binding intensity of gamma loop” value is 19500 arbitrary units.
Turning to B4, the “Binding intensity of gamma loop” value was 25300 arbitrary units.
Consider B5, for which the “Binding intensity of gamma loop” value was 35100 arbitrary units.
On the same count and under the same terms, the result for B6 reads 32800 arbitrary units; that for B7, 40800 arbitrary units.
